Measured values: US20120202221A1 (ACTELION PHARMACEUTICALS, published 2012)

T1: recombinant human GPR1 receptor (human, UniProt P46091 1-355)
T1 sequence: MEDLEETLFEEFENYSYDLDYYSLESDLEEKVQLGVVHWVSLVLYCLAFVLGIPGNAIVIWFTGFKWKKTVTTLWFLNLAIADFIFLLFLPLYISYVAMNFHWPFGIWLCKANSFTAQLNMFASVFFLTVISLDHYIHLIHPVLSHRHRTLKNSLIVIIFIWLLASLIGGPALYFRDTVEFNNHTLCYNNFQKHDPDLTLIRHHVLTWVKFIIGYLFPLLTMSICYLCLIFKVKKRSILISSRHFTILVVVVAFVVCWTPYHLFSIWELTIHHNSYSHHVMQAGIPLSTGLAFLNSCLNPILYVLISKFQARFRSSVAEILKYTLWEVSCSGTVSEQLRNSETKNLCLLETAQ


Each molecule was assayed against T1, recombinant human GPR1 receptor (assay: cell-based or functional assay).

| Molecule | EC50 of beta-arrestin2 recruitment (agonistic activity), CHO-K1-hGPR1-Beta-arrestin 2 PathHunter cells |
| --- | --- |
| d-Ser14-Humanin (peptide) | 92.8 nM |
| MAPRGFSCLLLLTGEIDLPVKRRA [Gly14-Humanin] | 46.1 nM |
| MAPRGFSALLLLTSEIDLPVKRRA [Ala8-Humanin] | 55.6 nM |
| MAPRGFSCLLLLTSEIDLPVKRRA [Humanin] | 60.9 nM |
